“And” between values parts separate entries of the source, which are not always exact repeats. Identical values can stand only once.
Target: the molecule itself
Experiment: SDS-PAGE (SDS-resistant oligomers); increasing concentrations of purified His-BKPyV agnoprotein on SDS PAGE, probed with anti-agnoprotein or anti-His antibody; oligomerisation concentration dependent

B1: recombinant 10xHis BKPyV agnoprotein (natural protein)
chain: MVLRQLSRQASVKVGKTWTGTKKRAQRIFIFILELLLEFCRGEDSVDGKNKSTTALPAVKDSVKDS
notes: agnoprotein of BK polyomavirus, DNA codon optimised for E. coli, amplified with primers from the ATG to the stop codon and cloned into pET19b (KpnI/BamHI); also called 10xHis BK agnoprotein; recombinant agnoprotein; source: E. coli DE3 gold, purified (NiNTA, HiTrap SP ion exchange, C4 solid phase extraction; dissolved in DMSO); not shown: His10, N-terminal, kept
  stoichiometry N: 2 and 4 and 5

From paper doi:10.1101/2023.01.30.526200, “The virus-encoded ion channel “viroporin” activity of the agnoprotein is required for BK Polyomavirus release from infected kidney cells” (bioRxiv, 2023)
